Consider 3 molecules from paper doi:10.1101/2020.10.28.359810 (bioRxiv, 2020).

Assay [1] has as its target T1, TLX ligand-binding domain (UniProt Q9Y466 155-385). As to the kind of experiment: BLI. Background: Biolayer interferometry detects binding as a change in optical thickness at a sensor tip.
The target of assay [2] is T1, TLX ligand-binding domain. Description: AlphaScreen or HTRF. (In general: Bead proximity is the source of the signal in Alpha formats.)

T1 sequence (Q9Y466 155-385): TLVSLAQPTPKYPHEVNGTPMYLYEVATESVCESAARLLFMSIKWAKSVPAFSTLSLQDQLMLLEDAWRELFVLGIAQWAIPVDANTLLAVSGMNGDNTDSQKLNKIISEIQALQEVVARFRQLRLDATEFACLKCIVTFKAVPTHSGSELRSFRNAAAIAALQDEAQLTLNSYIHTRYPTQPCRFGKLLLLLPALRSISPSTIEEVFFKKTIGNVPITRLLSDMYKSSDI

Broadly, the Kd is the constant that tells how readily two partners part at equilibrium. Read a high Kd as a looser complex. atrophin corepressor peptide returned a Kd in assay [1] of 14.2 µM.

One may read the EC50 as the midpoint of the concentration-response curve. Lower therefore signals a more potent agent. untagged atrophin peptide came in with an EC50 in assay [2] of 1.3 µM.

B1: receptor-interaction domain from NCOA3 (domain or fragment, UniProt Q9Y6Q9 621-821, looked up)
chain: LLQLLTCSSDDRGHSSLTNSPLDSSCKESSVSVTSPSGVSSSTSGGVSSTSNMHGSLLQEKHRILHKLLQNGNSPAEVAKITAEATGKDTSSITSCGDGNVVKQEQLSPKKKENNALLRYLLDRDDPSDALSKELQPQVEGVDNKMSQCTSSTIPSSSQEKDPKIKTETSEEGSGDLDNLDAILGDLTSSDFYNNSISSNG
Turning to B1, a half-maximal effect in assay [2] (EC50) was put at 3.3 µM.
